Measured values as given in patent publication US20230002507A1 (Novartis, published 2023).

How the values were obtained:
Human FXI zymogen = Human FXI zymogen (human, UniProt P03951 19-625); assay: cell-based or functional assay
Human FXI activated = Human FXI activated (human, UniProt P03951 19-387; P03951 388-625); assay: cell-based or functional assay
Chain of Human FXI activated (P03951 19-387 C226S limits assumed, chain 1 of 2): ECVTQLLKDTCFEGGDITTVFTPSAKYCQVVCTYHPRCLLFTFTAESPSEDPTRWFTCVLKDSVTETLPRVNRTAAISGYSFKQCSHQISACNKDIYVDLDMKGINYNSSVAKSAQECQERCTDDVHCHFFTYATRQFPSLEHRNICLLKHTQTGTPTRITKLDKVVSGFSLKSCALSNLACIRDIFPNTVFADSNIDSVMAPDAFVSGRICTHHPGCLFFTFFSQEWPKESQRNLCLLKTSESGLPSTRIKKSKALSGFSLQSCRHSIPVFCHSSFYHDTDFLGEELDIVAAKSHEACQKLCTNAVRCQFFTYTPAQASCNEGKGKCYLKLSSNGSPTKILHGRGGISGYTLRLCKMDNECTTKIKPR
Chain of Human FXI activated (P03951 388-625 limits assumed, chain 2 of 2): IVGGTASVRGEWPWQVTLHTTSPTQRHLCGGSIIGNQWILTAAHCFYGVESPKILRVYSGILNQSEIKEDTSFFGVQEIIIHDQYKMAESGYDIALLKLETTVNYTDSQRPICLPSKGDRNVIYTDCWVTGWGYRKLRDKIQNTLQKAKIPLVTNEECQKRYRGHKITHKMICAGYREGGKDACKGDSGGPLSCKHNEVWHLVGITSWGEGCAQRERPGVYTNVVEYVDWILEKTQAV

Chain of Human FXI zymogen (P03951 19-625 C226S limits assumed): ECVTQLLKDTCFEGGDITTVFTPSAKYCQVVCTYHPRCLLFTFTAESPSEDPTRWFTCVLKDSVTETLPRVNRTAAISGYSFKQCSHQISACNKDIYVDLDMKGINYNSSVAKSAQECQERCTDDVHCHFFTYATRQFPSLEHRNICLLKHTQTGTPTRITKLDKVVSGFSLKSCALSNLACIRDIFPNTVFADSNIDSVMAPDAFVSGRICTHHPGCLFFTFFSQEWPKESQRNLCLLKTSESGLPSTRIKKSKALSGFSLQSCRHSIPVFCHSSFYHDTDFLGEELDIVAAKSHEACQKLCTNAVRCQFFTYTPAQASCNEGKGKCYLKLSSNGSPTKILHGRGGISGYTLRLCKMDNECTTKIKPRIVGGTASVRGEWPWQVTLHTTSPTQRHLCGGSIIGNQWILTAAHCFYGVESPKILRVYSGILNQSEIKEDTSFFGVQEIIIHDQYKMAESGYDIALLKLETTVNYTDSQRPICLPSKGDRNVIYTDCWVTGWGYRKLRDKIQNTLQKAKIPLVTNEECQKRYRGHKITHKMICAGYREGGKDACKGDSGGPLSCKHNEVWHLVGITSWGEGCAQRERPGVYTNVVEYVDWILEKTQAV

B1: NOV1401-IgG (antibody, V domains shown)
VH: QVQLLESGGGLVQPGGSLRLSCAASGFTFSTAAMSWVRQAPGKGLEWVSGISGSGSSTYYADSVKGRFTISRDNSKNTLYLQMNSLRAEDTAVYYCARELSYLYSGYYFDYWGQGTLVTVSS
VL: QSVLTQPPSASGTPGQRVTISCSGSSSNIGSNDVSWYQQLPGTAPKLLIYKNYNRPSGVPDRFSGSKSGTSASLAISGLQSEDEADYYCSAWDQRQFDVVFGGGTKLTVLG
IC50, thrombin generation assay (TGA) in pooled human plasma (Human FXI zymogen): 24000 pM | IC50, inhibition of FXIa enzymatic activity (cleavage of the fluorescent peptide substrate BS-2494) (Human FXI activated): ~160 pM | IC50, inhibition of the enzymatic activity of full length human FXIa (cleavage of a fluorescently labelled peptide) (Human FXI activated): 160 pM
